Source: the supplement of paper PMC12042874
± gives the uncertainty stated by the source.

test: amyloid nucleation score (Sup35N fusion, yeast selection) (log enrichment); library NNK1; higher = more nucleation; inactive = no reads after selection
In short: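 Yeast lacking psi expressed peptides of 20 random codons fused to Sup35N, received 100 μM copper sulfate for 24 hours, and were then grown for 7 days at 30°C on medium lacking adenine and uracil. Illumina sequencing of input and output plasmid inserts provided the reads. Nucleation scores are DiMSum log enrichments of output over input, centred on the mode of non-aggregating sequences. Any sequence with under 100 input reads was excluded.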

FLSVFRL and LSYLLWGETRIRYWVPASLM are within error of each other in amyloid nucleation score: -0.884 ± 1.1 for the first, -0.32 ± 0.61 for the second.

DQGSWFH and MNMSKRFLRKLCERSRMPNR are within error of each other in amyloid nucleation score: -0.31 ± 1.1 for the first, 0.21 ± 0.61 for the second.

GKRDRMLQQIGWKLTYRCWN and DMCNLTRLPLVYFM are within error of each other in amyloid nucleation score: 0.522 ± 0.66 for the first, -0.037 ± 1.7 for the second.

Going from RLGRGKMKGWLSMLCRDCAL to QFSYTRIEVVSDVHLVNVVN, the amyloid nucleation score rises from -0.918 ± 0.65 to 0.373 ± 0.3.

VTNTSLFSIAKSLGHHHEGR and TCVDAVVLM are within error of each other in amyloid nucleation score: 0.272 ± 0.4 for the first, 0.063 ± 0.62 for the second.

SWRFDCYDRTWYNMYLEHLS and LYLAQFQGNGDLFSVPPCKV are within error of each other in amyloid nucleation score: 0.232 ± 0.23 for the first, 0.16 ± 0.64 for the second.

EINKLS and TRQWGHFSLYGESYFSCI are within error of each other in amyloid nucleation score: -1.27 ± 1.1 for the first, 0.187 ± 0.63 for the second.

GMRIGC and VFASVRLSCMEGGTLVG are within error of each other in amyloid nucleation score: 0.023 ± 0.95 for the first, 0.241 ± 0.33 for the second.

TSVSARFFFCRKISRMHRSS and NSCICLTRD are within error of each other in amyloid nucleation score: -0.885 ± 1.1 for the first, -1.27 ± 1.7 for the second.

DARFLSWNANMID and KLYGLVFFLVYGNDGSKRDL are within error of each other in amyloid nucleation score: 0.31 ± 0.19 for the first, 0.779 ± 0.36 for the second.

Going from INCQMWYRGPYIIQFLNLGW to FDNVVGYNGFMDGPGYLLYT, the amyloid nucleation score falls from 6.846 ± 0.055 to -0.16 ± 0.25.

RCTSSPFVVL and QQYSVDSRCTTVRYGLYMDM are within error of each other in amyloid nucleation score: 0.668 ± 0.82 for the first, 0.662 ± 1.1 for the second.

RRTWNWPTWIMRSRRREGHG and ECTCSIK are within error of each other in amyloid nucleation score: 0.368 ± 0.42 for the first, 0.03 ± 0.22 for the second.

Compared with CRKFQWLSLM, HFSFLSVDKRHWAFGPLCRK is higher in amyloid nucleation score: -0.921 ± 1.7 for the first, 7.358 ± 0.073 for the second.

Compared with TYRTLAARRWQLAYALWVLL, SGVICWYQKLAGINDALRWA is higher in amyloid nucleation score: -0.474 ± 0.6 for the first, 1.21 ± 0.25 for the second.

GRYTYDTMFTGWGASDELHI and DCCISVSHSGRAALYVKVEI are within error of each other in amyloid nucleation score: 1.14 ± 0.97 for the first, 0.022 ± 0.46 for the second.

Going from VYCVCYLWLKVVHKSLDTLS to GFEWVRVYWWGSYVGKRMGT, the amyloid nucleation score falls from 2.23 ± 0.079 to -0.219 ± 0.91.

MIHEVTLY and IFNSEVVSSLIRVVSMNMEG are within error of each other in amyloid nucleation score: 0.359 ± 0.41 for the first, 0.654 ± 0.21 for the second.

RLCEFSSKGASL and MTYITTGSSKYEGYKFTCMT are within error of each other in amyloid nucleation score: -0.115 ± 1.1 for the first, 0.502 ± 0.51 for the second.

Going from CWIFQDCCQKDCMLFLPCCK to LVSMYA, the amyloid nucleation score falls from 0.554 ± 0.26 to -0.859 ± 0.73.

FPMRSWCLEACRHCRQPTFS and FNVRC are within error of each other in amyloid nucleation score: -0.301 ± 1.4 for the first, 0.496 ± 0.36 for the second.

DRVWCHETKRSFYIMCKNNI and RGHLLGFMRRLCFIGLR are within error of each other in amyloid nucleation score: 0.052 ± 0.24 for the first, -0.372 ± 0.64 for the second.

AMGRLYS and MKFGGLSG are within error of each other in amyloid nucleation score: -0.41 ± 0.3 for the first, -0.171 ± 0.47 for the second.

LWYTALINTNACCVIRQDFR and GSSFI are within error of each other in amyloid nucleation score: 1.04 ± 0.8 for the first, 0.127 ± 0.57 for the second.

SVFSTEVCSTHAMILWKY and TTTRVFS are within error of each other in amyloid nucleation score: 0.117 ± 1.4 for the first, 0.813 ± 0.81 for the second.

First: GFPVVAEHVVEFKLV
Second: TVVWFTLIFLSLESSCINSL
The amyloid nucleation score of the first is lower: 0.093 ± 0.7 for the first, 1.22 ± 0.2 for the second.

TFHAHTLWQGAQVIRQSETR and CKVSSSFS are within error of each other in amyloid nucleation score: 0.053 ± 0.47 for the first, 0.258 ± 0.34 for the second.

First: VCVSIGWFCCSGCCLAQRLW
Second: IMTPIRGNN
The amyloid nucleation score of the first is higher: 7.2 ± 0.065 for the first, 0.209 ± 0.34 for the second.

First: IACPYRHNGCNTRLRNINAV
Second: IFHGWVTGCCLVDNLLFYCT
The amyloid nucleation score of the first is lower: -0.316 ± 0.42 for the first, 5.42 ± 0.1 for the second.

TTASVSSEI and MPCRARVRDNSLSWTEHTNC are within error of each other in amyloid nucleation score: -0.441 ± 1.2 for the first, -0.248 ± 0.62 for the second.

KNVARVHMQCLPAYVLGRNH and LFCTTSVDNKGPVRLPLVCV are within error of each other in amyloid nucleation score: 0.018 ± 0.66 for the first, -0.282 ± 1.7 for the second.

NRYFRMCFRLWFDPTWSVRA and IICICLVIISFRFCFSIKFM are within error of each other in amyloid nucleation score: 0.681 ± 0.85 for the first, -2.57 ± 2.7 for the second.

MSHFCLSLGAAASMNPLQLG and NTSWGYFR are within error of each other in amyloid nucleation score: -0.309 ± 1.1 for the first, -0.426 ± 0.52 for the second.

LDRYVRFEIRS and NYGFAIPFA are within error of each other in amyloid nucleation score: 0.661 ± 0.56 for the first, 0.323 ± 0.31 for the second.

FLLGRNFNLANSNFHSVICL and SNFCDTCLKLRGNTCMASFT are within error of each other in amyloid nucleation score: 0.24 ± 0.88 for the first, -0.259 ± 0.42 for the second.

First: CSAYDQVWDTNGRVCFA
Second: YWVILFPITIWSVKTSVGNH
The amyloid nucleation score of the first is lower: -0.003 ± 0.41 for the first, 1.7 ± 0.31 for the second.

KDICY and HDSTGHGEYVVGPEPFFPCA are within error of each other in amyloid nucleation score: 0.864 ± 0.51 for the first, 0.024 ± 0.4 for the second.

Compared with IATFGVTMSNSWT, RINLYIMFNLLDSGVDLNS is higher in amyloid nucleation score: 2.84 ± 0.13 for the first, 6.45 ± 0.071 for the second.

Going from HCRPFFSVEINKCLSC to SYFRFVLYN, the amyloid nucleation score falls from 5.15 ± 0.1 to 0.052 ± 1.1.

LCFMILNGGRQSQAQKDSYV and VFILALVELFGVQWLVVYNW are within error of each other in amyloid nucleation score: 0.086 ± 0.4 for the first, -0.42 ± 0.47 for the second.

With SSIVKYSCLVVFFQRNHVIP the amyloid nucleation score was “inactive”.
With TMVCKGSCFWSSWSITFPLQ the amyloid nucleation score was “inactive”.
For DACMTGSTLTGYLSTDVGLI, the amyloid nucleation score was “inactive”.
For ACCYVDLKIKFNVLPAVNIK, the amyloid nucleation score was “inactive”.
In the case of SFTYLCFKQILKPKCTLLAP, the amyloid nucleation score is reported as “inactive”.
In the case of VINWLCWVYLECLWYYWMVG, the amyloid nucleation score is reported as “inactive”.
